T1: Ir-CPI (Ixodes ricinus Contact Phase Inhibitor), recombinant
T1 chain: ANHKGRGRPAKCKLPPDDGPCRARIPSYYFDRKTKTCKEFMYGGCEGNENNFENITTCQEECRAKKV

B1: t-PA (protein)
chain: SYQVICRDEKTQMIYQQHQSWLRPVLRSNRVEYCWCNSGRAQCHSVPVKSCSEPRCFNGGTCQQALYFSDFVCQCPEGFAGKCCEIDTRATCYEDQGISYRGTWSTAESGAECTNWNSSALAQKPYSGRRPDAIRLGLGNHNYCRNPDRDSKPWCYVFKAGKYSSEFCSTPACSEGNSDCYFGNGSAYRGTHSLTESGASCLPWNSMILIGKVYTAQNPSAQALGLGKHNYCRNPDGDAKPWCHVLKNRRLTWEYCDVPSCSTCGLRQYSQPQFRIKGGLFADIASHPWQAAIFAKHRRSPGERFLCGGILISSCWILSAAHCFQERFPPHHLTVILGRTYRVVPGEEEQKFEVEKYIVHKEFDDDTYDNDIALLQLKSDSSRCAQESSVVRTVCLPPADLQLPDWTECELSGYGKHEALSPFYSERLKEAHVRLYPSSRCTSQHLLNRTVTDNMLCAGDTRSGGPQANLHDACQGDSGGPLVCLNDGRMTLVGIISWGLGCGQKDVPGVYTKVTNYLDWIRDNMRP
B2: factor Xa (protein)
chain 1: ANSFLEEMKKGHLERECMEETCSYEEAREVFEDSDKTNEFWNKYKDGDQCETSPCQNQGKCKDGLGEYTCTCLEGFEGKNCELFTRKLCSLDNGDCDQFCHEEQNSVVCSCARGYTLADNGKACIPTGPYPCGKQTLER
chain 2: IVGGQECKDGECPWQALLINEENEGFCGGTILSEFYILTAAHCLYQAKRFKVRVGDRNTEQEEGGEAVHEVEVVIKHNRFTKETYDFDIAVLRLKTPITFRMNVAPACLPERDWAESTLMTQKTGIVSGFGRTHEKGRQSTRLKMLEVPYVDRNSCKLSSSFIITQNMFCAGYDTKQEDACQGDSGGPHVTRFKDTYFVTGIVSWGEGCARKGKYGIYTKVTAFLKWIDRSMKTRGLPKAKSHAPEVITSSPLK
B3: factor XIIa (protein)
chain: IPPWEAPKEHKYKAEEHTVVLTVTGEPCHFPFQYHRQLYHKCTHKGRPGPQPWCATTPNFDQDQRWGYCLEPKKVKDHCSKHSPCQKGGTCVNMPSGPHCLCPQHLTGNHCQKEKCFEPQLLRFFHKNEIWYRTEQAAVARCQCKGPDAHCQRLASQACRTNPCLHGGRCLEVEGHRLCHCPVGYTGAFCDVDTKASCYDGRGLSYRGLARTTLSGAPCQPWASEATYRNVTAEQARNWGLGGHAFCRNPDNDIRPWCFVLNRDRLSWEYCDLAQCQTPTQAAPPTPVSPRLHVPLMPAQPAPPKPQPTTRTPPQSQTPGALPAKREQPPSLTRNGPLSCGQRLRKSLSSMTRVVGGLVALRGAHPYIAALYWGHSFCAGSLIAPCWVLTAAHCLQDRPAPEDLTVVLGQERRNHSCEPCQTLAVRSYRLHEAFSPVSYQHDLALLRLQEDADGSCALLSPYVQPVCLPSGAARPSETTLCQVAGWGHQFEGAEEYASFLQEAQVPFLSLERCSAPDVHGSSILPGMLCAGFLEGGTDACQGDSGGPLVCEDQAAERRLTLQGIISWGSGCGDRNKPGVYTDVAYYLAWIREHTVS
B4: plasmin (protein)
chain: KVYLSECKTGNGKNYRGTMSKTKNGITCQKWSSTSPHRPRFSPATHPSEGLEENYCRNPDNDPQGPWCYTTDPEKRYDYCDILECEEECMHCSGENYDGKISKTMSGLECQAWDSQSPHAHGYIPSKFPNKNLKKNYCRNPDRELRPWCFTTDPNKRWELCDIPRCTTPPPSSGPTYQCLKGTGENYRGNVAVTVSGHTCQHWSAQTPHTHNRTPENFPCKNLDENYCRNPDGKRAPWCHTTNSQVRWEYCKIPSCDSSPVSTEQLAPTAPPELTPVVQDCYHGDGQSYRGTSSTTTTGKKCQSWSSMTPHRHQKTPENYPNAGLTMNYCRNPDADKGPWCFTTDPSVRWEYCNLKKCSGTEASVVAPPPVVLLPDVETPSEEDCMFGNGKGYRGKRATTVTGTPCQDWAAQEPHRHSIFTPETNPRAGLEKNYCRNPDGDVGGPWCYTTNPRKLYDYCDVPQCAAPSFDCGKPQVEPKKCPGRVVGGCVAHPHSWPWQVSLRTRFGMHFCGGTLISPEWVLTAAHCLEKSPRPSSYKVILGAHQEVNLEPHVQEIEVSRLFLEPTRKDIALLKLSSPAVITDKVIPACLPSPNYVVADRTECFITGWGETQGTFGAGLLKEAQLPVIENKVCNRYEFLNGRVQSTELCAGHLAGGTDSCQGDSGGPLVCFEKDKYILQGVTSWGLGCARPNKPGVYVRVSRFVTWIEGVMRNN
B5: factor VIIa (protein)
chain: ANAFLEELRPGSLERECKEEQCSFEEAREIFKDAERTKLFWISYSDGDQCASSPCQNGGSCKDQLQSYICFCLPAFEGRNCETHKDDQLICVNENGGCEQYCSDHTGTKRSCRCHEGYSLLADGVSCTPTVEYPCGKIPILEKRNASKPQGRIVGGKVCPKGECPWQVLLLVNGAQLCGGTLINTIWVVSAAHCFDKIKNWRNLIAVLGEHDLSEHDGDEQSRRVAQVIIPSTYVPGTTNHDIALLRLHQPVVLTDHVVPLCLPERTFSERTLAFVRFSLVSGWGQLLDRGATALELMVLNVPRLMTQDCLQQSRKVGDSPNITEYMFCAGYSDGSKDSCKGDSGGPHATHYRGTWYLTGIVSWGQGCATVGHFGVYTRVSQYIEWLQKLMRSEPRPGVLLRAPFP

Molecular target: T1, Ir-CPI (Ixodes ricinus Contact Phase …)

Protein | amidolytic activity on chromogenic substrate (protease:Ir-CPI 1:5) | activation of factor XI into factor XIa by factor XIIa (reconstituted system, purified factors, chromogenic substrate) | activation of prekallikrein into kallikrein by factor XIIa (reconstituted system, purified factors, chromogenic substrate)
B1 | The results obtained did not show any effect of Ir-CPI protein on the amidolytic activity of these factors |  | 
B2 | The results obtained did not show any effect of Ir-CPI protein on the amidolytic activity of these factors |  | 
B3 | The results obtained did not show any effect of Ir-CPI protein on the amidolytic activity of these factors | Ir-CPI inhibits ... the activation of factor XI into factor XIa by factor XIIa | Ir-CPI inhibits the activation of prekallikrein into kallikrein by factor XIIa
B4 | The results obtained did not show any effect of Ir-CPI protein on the amidolytic activity of these factors |  | 
B5 | The results obtained did not show any effect of Ir-CPI protein on the amidolytic activity of these factors |  | 
